Measured values taken from paper PMC7196598, “Architecture of the herpesvirus genome-packaging complex and implications for DNA translocation” (Protein & Cell, 2020).
Where “and” joins values, the source holds several entries; their conditions need not be identical. Equal entries are not always repeated.

B1: HSV1-pUL15 (residues 1–737), ATPase/terminase subunit of the herpesvirus terminase complex (natural protein)
chain: MFGQQLASDVQQYLERLEKQRQLKVGADEASAGLTMGGDALRVPFLDFATATPKRHQTVVPGVGTLHDCCEHSPLFSAVARRLLFNSLVPAQLKGRDFGGDHTAKLEFLAPELVRAVARLRFKECAPADVVPQRNAYYSVLNTFQALHRSEAFRQLVHFVRDFAQLLKTSFRASSLTETTGPPKKRAKVDVATHGRTYGTLELFQKMILMHATYFLAAVLLGDHAEQVNTFLRLVFEIPLFSDAAVRHFRQRATVFLVPRRHGKTWFLVPLIALSLASFRGIKIGYTAHIRKATEPVFEEIDACLRGWFGSARVDHVKGETISFSFPDGSRSTIVFASSHNTNGIRGQDFNLLFVDEANFIRPDAVQTIMGFLNQANCKIIFVSSTNTGKASTSFLYNLRGAADELLNVVTYICDDHMPRVVTHTNATACSCYILNKPVFITMDGAVRRTADLFLADSFMQEIIGGQARETGDDRPVLTKSAGERFLLYRPSTTTNSGLMAPDLYVYVDPAFTANTRASGTGVAVVGRYRDDYIIFALEHFFLRALTGSAPADIARCVVHSLTQVLALHPGAFRGVRVAVEGNSSQDSAVAIATHVHTEMHRLLASEGADAGSGPELLFYHCEPPGSAVLYPFFLLNKQKTPAFEHFIKKFNSGGVMASQEIVSATVRLQTDPVEYLLEQLNNLTETVSPNTDVRTYSGKRNGASDDLMVAVIMAIYLAAQAGPPHTFAPITRVS
notes: pUL15 of herpes simplex virus 1 (HSV1), tripartite terminase subunit 3; construct printed as residues 1–737, while the results say pUL15 is 735 residues in length (domains end at 735); Cloned in pFastBac-HTA; No tag cleavage is described; also called ATPase/terminase pUL15; source: Sf9, co-infected with two recombinant baculoviruses (co-expressed with pUL28 and pUL33), purified (Ni-NTA, Superose …)
B2: herpesvirus terminase complex (heterotrimer of pUL15, pUL28 and pUL33), wild type (complex)
chain 1: MFGQQLASDVQQYLERLEKQRQLKVGADEASAGLTMGGDALRVPFLDFATATPKRHQTVVPGVGTLHDCCEHSPLFSAVARRLLFNSLVPAQLKGRDFGGDHTAKLEFLAPELVRAVARLRFKECAPADVVPQRNAYYSVLNTFQALHRSEAFRQLVHFVRDFAQLLKTSFRASSLTETTGPPKKRAKVDVATHGRTYGTLELFQKMILMHATYFLAAVLLGDHAEQVNTFLRLVFEIPLFSDAAVRHFRQRATVFLVPRRHGKTWFLVPLIALSLASFRGIKIGYTAHIRKATEPVFEEIDACLRGWFGSARVDHVKGETISFSFPDGSRSTIVFASSHNTNGIRGQDFNLLFVDEANFIRPDAVQTIMGFLNQANCKIIFVSSTNTGKASTSFLYNLRGAADELLNVVTYICDDHMPRVVTHTNATACSCYILNKPVFITMDGAVRRTADLFLADSFMQEIIGGQARETGDDRPVLTKSAGERFLLYRPSTTTNSGLMAPDLYVYVDPAFTANTRASGTGVAVVGRYRDDYIIFALEHFFLRALTGSAPADIARCVVHSLTQVLALHPGAFRGVRVAVEGNSSQDSAVAIATHVHTEMHRLLASEGADAGSGPELLFYHCEPPGSAVLYPFFLLNKQKTPAFEHFIKKFNSGGVMASQEIVSATVRLQTDPVEYLLEQLNNLTETVSPNTDVRTYSGKRNGASDDLMVAVIMAIYLAAQAGPPHTFAPITRVS
chain 2: MAAPVSEPTVARQKLLALLGQVQTYVFQIELLRRCDPHIGRGKLPQLKLNALQVRALRRRLRPGLEAQAGAFLTPLSVTLELLLEYAWREGERLLGSLETFATAGDVAAFFTETMGLARPCPYHQRVRLDTYGGTVHMELCFLHDVENFLKQLNYCHLITPSRGATAALERVREFMVGAVGSGLIVPPELSDPSHPCAVCFEELCVTANQGATIARRLADRICNHVTQQAQVRLDANELRRYLPHAAGLSDADRARALSVLDHALARTAGGDGQPHPSPENDSVRKEADALLEAHDVFQATTPGLYAISELRFWLASGDRAGQTTMDAFASNLTALARRELQQETAAVAVELALFGRRAEHFDRAFGSHLAALDMVDALIIGGQATSPDDQIEALIRACYDHHLTTPLLRRLVSPEQCDEEALRRVLARMGAGGAADAPKGGAGPDDDGDRVAVEEGARGLGAPGGGGEDEDRRRGPGGQGPETWGDIATQAAADVRERRRLYADRLTKRSLASLGRCVREQRGELEKMLRVSVHGEVLPATFAAVANGFAARARFCALTAGAGTVIDNRSAPGVFDAHRFMRASLLRHQVDPALLPSITHRFFELVNGPLFDHSTHSFAQPPNTALYYSVENVGLLPHLKEELARFIMGAGGSGADWAVSEFQRFYCFDGISGITPTQRAAWRYIRELIIATTLFASVYRCGELELRRPDCSRPTSEGRYRYPPGVYLTYDSDCPLVAIVESAPDGCIGPRSVVVYDRDVFSILYSVLQHLAPRLPDGGHDGPP
chain 3: MAGREGRTRQRTLRDTIPDCALRSQTLESLDARYVSRDGAHDAAVWFEDMTPAELEVVFPTTDAKLNYLSRTQRLASLLTYAGPIKAPDDAAAPQTPDTACVHGELLAAKRERFAAVINRFLDLHQILRG
notes: pUL15 of herpes simplex virus 1 (HSV1); construct printed as residues 1–737, while the results say pUL15 is 735 residues in length; pUL28 of herpes simplex virus 1 (HSV1); construct printed as residues 1–787; pUL33 of herpes simplex virus 1 (HSV1); construct printed as residues 1–132; One heterotrimer is one subunit of the hexameric ring; the hexamer and dodecamer are written as self-association …

Experiments:
[1] = biological target: the molecule itself; assay: cryo-EM structure; purified terminase complex (1 mg/mL), apo or with ADP•BeF3 and pac2 DNA (58 bp; DNA not visible); hexameric and dodecameric assemblies, block-based reconstruction of one terminase complex
[2] = biological target: the molecule itself; assay: AUC; sedimentation velocity, Beckman XL-I, 20 °C, 20 mmol/L Hepes, 300 mmol/L NaCl, pH 7.5, A280 ~0.8, 20,000 rpm; shown with SDS-PAGE and electron microscopy (Fig. 1B)

Protein | binding result [1] | stoichiometry N [2]
B1 | binds | 
B2 |  | 6 and 12
